The source of these data is patent publication US20110262438A1 (Ablynx, published 2011).

Test [1] addresses T1, Human CXCR7 (human, UniProt P25106 1-362).
T1 construct: also called hCXCR7; CXCR7-LP
As to the kind of experiment: displacement of 75 pM [125I]-CXCL12 from NIH3T3-hCXCR7 cells. Here is the method: In order to assess the competition capacity, Nanobodies were evaluated in SDF1 ligand displacement assays using stable NIH3T3-hCXCR7 cells. 24 h after seeding the cells, the cells were pre-incubated for 1 h at 4° C. with a dilution series of purified monovalent Nanobodies and the corresponding C-terminal Tag-2 tagged fusion proteins to the human serum albumin binding Nanobody Alb8 (see Table B-4: SEQ ID NOs: 44 to 48 wherein the polypeptides are all C-terminal tagged with Tag-2). Also reference molecules Mab 8F11 (Biolegend), Mab 11G8 (R&D) and unlabelled SDF1 were included in the assay. Radiolabeled [¹²⁵I]-CXCL12 was diluted and added to the cells to reach a final concentration of 75 pM and cells were incubated for 3 h at 4° C. After incubation, cells were washed twice, lysed with RIPA buffer and the ¹²⁵I signal was measured. The competition of tested Nanobodies and 8F11 Mab is between 73 and 83%, relative to competition with unlabelled SDF1. This level of displacement correspond to a 100% blocking of the CXCR7 protein, as the remaining SDF-1 binding is believed not to be CXCR7 mediated, but due to the SDF-1 interaction with heparan sulfate proteoglycans. Fusion to the human serum albumin-binding Nanobody Alb8 has no significant effect on Ki values.

The target in test [2] is T1, Human CXCR7. As to the kind of experiment: competition FACS, 4 nM biotinylated SDF1 on HEK-hCXCR7 cells. Here is the method: The potency of Nanobody 7CXCR07C3 and Mab 8F11 (Biolegend) to compete with SDF1 was evaluated in competition FACS with HEK-hCXCR7 cells. Cells were incubated simultaneously with 4 nM biotinylated SDF1 (R&D) and with diluted test molecules, for 2 h at 4° C. Binding of biotinylated SDF1 was detected using streptavidin-PE. Competition curves are depicted in FIG. 1.

Test [3] deals with T1, Human CXCR7. In words: FACS, ratio of Hek293 hCXCR7 signal over control cells. Here is the method: Clones representing distinct Nanobody B-cell lineages were tested as periplasmic extracts for their binding to cell surface exposed CXCR7. In this assay, 5-fold dilutions of periplasmic extract were incubated with Hek293 hCXCR7 and Hek293 wt cells. Binding of the Nanobodies was detected using mouse anti-myc (Serotec), followed by anti-mouse IgG-PE (Jackson Immununoresearch). Binding signals of selected Nanobody clones (mcf values and ratios of binding) are represented in Table B-8 and indicate that the Nanobodies do bind to cellular human CXCR7.
(In flow cytometry, cells or beads pass a laser one at a time.)

A value given as a limit tells only on which side of the number the result lay.

T1 sequence (P25106 whole entry): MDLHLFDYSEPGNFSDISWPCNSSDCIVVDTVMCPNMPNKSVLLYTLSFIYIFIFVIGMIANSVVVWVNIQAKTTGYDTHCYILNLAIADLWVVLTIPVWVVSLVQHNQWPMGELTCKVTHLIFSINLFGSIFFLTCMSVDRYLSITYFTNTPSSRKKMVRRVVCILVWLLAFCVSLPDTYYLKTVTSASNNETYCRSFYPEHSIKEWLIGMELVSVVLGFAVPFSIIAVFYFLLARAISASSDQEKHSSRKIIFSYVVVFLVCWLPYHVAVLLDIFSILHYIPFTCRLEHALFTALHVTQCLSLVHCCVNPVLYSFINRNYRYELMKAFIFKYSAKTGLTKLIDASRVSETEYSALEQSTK

In the case of Mab 8F11 (Biolegend) (antibody), in test [1], the displacement (% relative to cold SDF1) worked out at 73%. In addition, the competition (% relative to unlabelled SDF1) in test [2] was > 95%.

B1: 08A10 with Tag-1 (VHH)
VHH: EVQLVESGGGLVQAGGSLRLSCAASGSIFSIAAMGWYRQATGKQRELVATITDGGTTTYADSVKGRVTISRDRSANTVYLAMNNLKPDDTAVYYCYAYLRYTSRVPGDNYWGQGTQVTVSS
Regarding B1, the “Fod Hek CXCR7/CXCR4” value in test [3] is 85.1 fold.

B2: 08A10 with Tag-2 (VHH)
VHH: B1 VHH
notes: Purified monovalent Nanobody from E. coli (pAX100)
Regarding B2, the “displacement (% relative to cold SDF1)” value in test [1] was determined as 75%.

B3: Mab 11G8 (R&D Systems) (antibody, V domains shown)
VH: EVKLVESGGDLVQPGGSLKLSCATSGFTFSDYYMFWVRQTPEKRLEWVAYITNGGDRSYYSDTVTGRFIISRDNAKNTLYLQMSRLKSEDTAMYYCARQGNWAAWFVYWGQGTLVTVSA
VL: DVLMTQTPLSLPVSLGDQASISCRSSHYIVHSDGNTYLEWYLQKPGQSPKLLIYKVSNRFSGVPDRFSGSGSGTDFTLKISRVEAEDLGIYYCFQGSHVPLTFGAGTKLELKR
For B3, the “displacement (% relative to cold SDF1)” value in test [1] is 24%.

B4: 07B11 with Tag-1 (VHH)
VHH: EVQLVESGGNLVQAGGSLGLSCAASVSISSIHIMGWYRQAPGKQRDLVATITSGGSTAYADSVKGRFTVSKDNAKNTVYLQMDSLKPEDTSVYYCAAEVRNGVFGKWNHYWGQGTQVTVSS
Take B4: the “Fod Hek CXCR7/CXCR4” value in test [3] was 110 fold.

B5: 07B11 with Tag-2 (VHH)
VHH: B4 VHH
notes: Purified monovalent Nanobody from E. coli (pAX100); also called 707B11
Consider B5, for which the “displacement (% relative to cold SDF1)” value in test [1] turned out to be 75%.

B6: 07C3 with Tag-1 (VHH)
VHH: EVQLVESGGGLVQAGESLTLSCAASGRTLSAYIMGWFRQAPGKEREFVAGIWSGGYTHLADSAKGRFSISRDNAKNTVYLQMNGLKPEDTAVYYCAAGLRGRQYSNWGQGTQVTVSS
In the case of B6, the “Fod Hek CXCR7/CXCR4” value in test [3] was 73.2 fold.

B7: 07C3 with Tag-2 (VHH)
VHH: B6 VHH
notes: Purified monovalent Nanobody from E. coli (pAX100); also called 7CXCR07C3
Regarding B7, in test [1], the “displacement (% relative to cold SDF1)” value came out at 78%. Further, the “competition (% relative to unlabelled SDF1)” value in test [2] is > 95%.

B8: 08A5 with Tag-1 (VHH)
VHH: EVQLVESGGGLVQAGDSLRLSCAASGLTFSNYDMGWFRQAPGKEREFVGASWWSGGAPYYSDSVKGRFTISRDNAKNTVYLQANSLRPEDTAVYYCAAKRLRSFASGGSYDYWGQGTQVTVSS
Regarding B8, in test [3], the “Fod Hek CXCR7/CXCR4” value is 60.1 fold.

B9: 08A5 with Tag-2 (VHH)
VHH: B8 VHH
notes: as for B2
Turning to B9, the “displacement (% relative to cold SDF1)” value in test [1] came to 77%.
